Data set [1] has as its target T1, A3Gctd-2K3A-E259A (UniProt Q9HC16 191-384, L234K;C243A;E259A;F310K;C321A;C356A). Put plainly: MST.
Data set [2] concerns the target T1, A3Gctd-2K3A-E259A. Put plainly: MST. This is another data set of the same source.

Like-named read-outs stand apart in the source and are kept apart here.

T1 sequence (Q9HC16 191-384 L234K/C243A/E259A/F310K/C321A/C356A): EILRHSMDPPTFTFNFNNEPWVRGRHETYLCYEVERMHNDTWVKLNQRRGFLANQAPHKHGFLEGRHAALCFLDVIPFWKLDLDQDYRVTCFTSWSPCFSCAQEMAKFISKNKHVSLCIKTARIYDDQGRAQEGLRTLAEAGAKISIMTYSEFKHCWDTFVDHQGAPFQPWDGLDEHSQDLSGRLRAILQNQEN

One may read the Kd as a measure of binding affinity in units of concentration. Low values mean tighter binding, high ones weaker binding. With AATCCCAAA (ssDNA, ribocytidine at position 6, rest DNA) [5'-AATCCrCAAA], the Kd with A3Gctd-2K3A-E259A [1] came to 6650 ± 860 µM.

ATTCCCAATT (XNA, 2'-deoxy-2'-fluoroarabinocytidine at position 6, rest DNA) [5'-ATTCC(2'-F-ANA)CAATT] came in with a Kd with A3Gctd-2K3A-E259A [2] of 1740 ± 490 µM.

With AATCCCAAA (ssDNA) [5'-AATCCCAAA (substrate)], the Kd in the data set with A3Gctd-2K3A-E259A [1] amounted to 1570 ± 160 µM.

The molecule ATTCCCAATT (XNA, 2'-deoxy-2'-fluororibocytidine at position 6, rest DNA) [5'-ATTCC(2'-F-RNA)CAATT] displayed a Kd with A3Gctd-2K3A-E259A [1] of 3760 ± 300 µM.

In turn, AATCCUAAA (ssDNA, deoxyuridine at position 6) [5'-AATCCdUAAA (intermediate product)] showed a Kd in the data set with A3Gctd-2K3A-E259A [1] of 2170 ± 250 µM.

Source of the values: paper PMC6698744.
